We go through 61 sequences from the supplement of paper PMC7877785.

This series is described as follows: self-splicing fitness, log relative to wild type (ln ratio); higher = more splicing; Tetrahymena group I intron in knt gene, E. coli kanamycin selection, DiMSum; sequences stand for … in CUCUCU…GGAGGGAAAAGUUAUCAGGCAUGCACCUGGUAGCUAGUCUUUAAACCAAUAGAUUGCAUCGGUUUAAAAGGCAAGACCGUCAAAUUGCGGGAAAGGGGUCAACAGCCGUUCAGUACCAAGUCUCAGGGGAAACUUUGAGAUGGCCUUGCAAAGGGUAUGGUAAUAAGCUGACGGACAUGGUCCUAACCACGCAGCCAAGUCCUAAGUCAACAGAUCUUCUGUUGAUAUGGAUGCAGUUCACAGACUAAAUGUCGGUCGGGGAAGAUGUAUUCUUCUCAUAAGAUAUAGUCGGACCUCUCCUUAAUGGGAGCUAGCGGAUGAAGUGAUGCAACACUGGAGCCGCUGGGAACUAAUUUGUAUGCGAAAGUAUAUUGAUUAGUUUUGGAGUACUCGUGGUCG
In short, it runs like this: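 Fitness was computed with DiMSum as the error-weighted combination of replicate fold changes, kanamycin versus none, each normalised to wild type. The library randomised all eight intron nucleotides of the P1ex region, with the intron placed in the knt kanamycin-resistance gene on pET-22b(+) in E. coli BL21(DE3). Six replicate transformations were grown overnight at 37°C or 30°C on LB agar with or without 25 μg/mL kanamycin, plus 100 μg/mL carbenicillin, 50 μM IPTG and 0.2% rhamnose. Pooled colonies were amplicon-sequenced on an Illumina HiSeq 2500.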

± gives the uncertainty stated by the source.

Regarding ACUGAGCAAUAUUACGAACU, the “self-splicing fitness (ln)” value (30 °C) was -1.92 ± 0.13 and the “self-splicing fitness (ln)” value (37 °C) was -1.24 ± 0.16. For the sequence AGAGAGCAAUAUUACGACGA, the “self-splicing fitness (ln)” value (37 °C) was -1.61 ± 0.29. Regarding AUGUAGCAAUAUUACGGGGC, the “self-splicing fitness (ln)” value runs as follows: (30 °C) -4.82 ± 0.34; (37 °C) -2.87 ± 0.19. Consider GACCAGCAAUAUUACGGCUA, for which the “self-splicing fitness (ln)” value was 0.142 ± 0.055 (30 °C) and 0.0036 ± 0.068 (37 °C).

On to AGGAAGCAAUAUUACGGUUA, for which the “self-splicing fitness (ln)” value reads like this: (30 °C) -0.766 ± 0.1; (37 °C) -0.654 ± 0.1. On the same counts, the results for CUGUAGCAAUAUUACGCAGU are -2.29 ± 0.15 and -3.65 ± 0.33. Consider GCUUAGCAAUAUUACGGCCC, for which the “self-splicing fitness (ln)” value (30 °C) amounted to 0.0255 ± 0.31. Turning to GGACAGCAAUAUUACGGCCG, the “self-splicing fitness (ln)” value is -0.0795 ± 0.14 (30 °C) and -0.000523 ± 0.19 (37 °C). On the same counts, the results for CAUCAGCAAUAUUACGAUCC are -1.56 ± 0.12 and -0.817 ± 0.16. On the same counts, the results for UGCUAGCAAUAUUACGGCCG are -0.359 ± 0.12 and 0.337 ± 0.14. Taken in the same sequence, the figures for UAAGAGCAAUAUUACGUUGU were -1.95 ± 0.2 and -0.367 ± 0.31. Consider UCAAAGCAAUAUUACGUAUG, for which the “self-splicing fitness (ln)” value was -2.44 ± 0.12 (30 °C) and -2.05 ± 0.15 (37 °C).

On to GUCUAGCAAUAUUACGACGC, for which the “self-splicing fitness (ln)” value was -0.0791 ± 0.12 (30 °C) and 0.364 ± 0.14 (37 °C).

CACUAGCAAUAUUACGUAGA: the “self-splicing fitness (ln)” value (30 °C) was -3.01 ± 0.089 and the “self-splicing fitness (ln)” value (37 °C) is -1.81 ± 0.096. Taken in the same sequence, the figures for AGCCAGCAAUAUUACGACUG were -2.72 ± 0.091 and -1.14 ± 0.095. On the same counts, the results for UUAGAGCAAUAUUACGAGCA are -2.27 ± 0.42 and -1.09 ± 0.32. As for UGAGAGCAAUAUUACGUGAU, the “self-splicing fitness (ln)” value (30 °C) was -3.97 ± 0.46 and the “self-splicing fitness (ln)” value (37 °C) is -2.72 ± 0.38.

GUGAAGCAAUAUUACGUUCG: the “self-splicing fitness (ln)” value by setting is: (30 °C) -0.236 ± 0.095; (37 °C) -0.797 ± 0.1. Taken in the same sequence, the figures for UGUCAGCAAUAUUACGAUUG were -0.341 ± 0.076 and 0.249 ± 0.12. On the same counts, the results for CACCAGCAAUAUUACGAGGU are -3.22 ± 0.12 and -2.53 ± 0.16.

Consider AUUAAGCAAUAUUACGACGG, for which the “self-splicing fitness (ln)” value reads like this: (30 °C) -2.32 ± 0.23; (37 °C) -2.54 ± 0.41. On the same counts, the results for UCAGAGCAAUAUUACGAUGA are -0.825 ± 0.2 and 0.109 ± 0.21. On the same counts, the results for AACCAGCAAUAUUACGUCAU are -1.23 ± 0.063 and -1.14 ± 0.067.

Consider CAGAAGCAAUAUUACGCGGG, for which the “self-splicing fitness (ln)” value runs as follows: (30 °C) -2.43 ± 0.2; (37 °C) -2.74 ± 0.27. On the same counts, the results for GCAAAGCAAUAUUACGUGGU are -3.38 ± 0.15 and -2.59 ± 0.15. Take AUUUAGCAAUAUUACGAUAC: the “self-splicing fitness (ln)” value reads like this: (30 °C) -2.44 ± 0.17; (37 °C) -1.01 ± 0.25. Taken in the same sequence, the figures for CAAGAGCAAUAUUACGGCUG were -0.309 ± 0.098 and -0.473 ± 0.16.

Regarding GUGUAGCAAUAUUACGCUCG, the “self-splicing fitness (ln)” value was -1 ± 0.18 (30 °C) and -0.53 ± 0.21 (37 °C). On the same counts, the results for CUGUAGCAAUAUUACGUAAU are -3.88 ± 0.3 and -3.29 ± 0.37. On the same counts, the results for GCUUAGCAAUAUUACGUAAG are -2.18 ± 0.12 and -0.181 ± 0.17. With CGUAAGCAAUAUUACGUUAC, the “self-splicing fitness (ln)” value is, setting by setting: (30 °C) -3.56 ± 0.26; (37 °C) -2.03 ± 0.28.

GCCGAGCAAUAUUACGGGGG: the “self-splicing fitness (ln)” value reads like this: (30 °C) -3.61 ± 0.19; (37 °C) -3.02 ± 0.31.

As for AUCAAGCAAUAUUACGUUAG, the “self-splicing fitness (ln)” value was -3.1 ± 0.14 (30 °C) and -3.05 ± 0.2 (37 °C). As for GCGAAGCAAUAUUACGUUAU, the “self-splicing fitness (ln)” value is, setting by setting: (30 °C) -2.2 ± 0.1; (37 °C) -1.86 ± 0.11. Regarding CCCCAGCAAUAUUACGUACA, the “self-splicing fitness (ln)” value reads like this: (30 °C) -3.37 ± 0.21; (37 °C) -3.5 ± 0.35. On the same counts, the results for CAGCAGCAAUAUUACGUAUC are -3.6 ± 0.19 and -2.13 ± 0.13. UUUAAGCAAUAUUACGAGCC: the “self-splicing fitness (ln)” value (30 °C) was -1.83 ± 0.36. As to ACCAAGCAAUAUUACGCGCG, the “self-splicing fitness (ln)” value is, setting by setting: (30 °C) -1.5 ± 0.074; (37 °C) -0.523 ± 0.081. Take CACGAGCAAUAUUACGGGAU: the “self-splicing fitness (ln)” value was -3.52 ± 0.28 (30 °C) and -2.33 ± 0.21 (37 °C). Take AAGUAGCAAUAUUACGUUCG: the “self-splicing fitness (ln)” value (30 °C) was -1.35 ± 0.13 and the “self-splicing fitness (ln)” value (37 °C) was -0.681 ± 0.17.

For the sequence CCCUAGCAAUAUUACGCCAA, the “self-splicing fitness (ln)” value was -3.03 ± 0.25 (30 °C) and -2.74 ± 0.41 (37 °C).

In the case of GAUUAGCAAUAUUACGGGCC, the “self-splicing fitness (ln)” value is -1.66 ± 0.32 (30 °C) and -2.01 ± 0.47 (37 °C).

On to CUCUAGCAAUAUUACGGUCG, for which the “self-splicing fitness (ln)” value is -1.51 ± 0.14 (30 °C) and -0.933 ± 0.14 (37 °C). For the sequence CUAGAGCAAUAUUACGACCG, the “self-splicing fitness (ln)” value worked out at 0.13 ± 0.13 (30 °C) and 0.707 ± 0.18 (37 °C). CUUAAGCAAUAUUACGAACU: the “self-splicing fitness (ln)” value (37 °C) is -2.61 ± 0.38. Consider CCACAGCAAUAUUACGAUCU, for which the “self-splicing fitness (ln)” value reads like this: (30 °C) -3.57 ± 0.16; (37 °C) -2.43 ± 0.16. Taken in the same sequence, the figures for GGGGAGCAAUAUUACGGCUA were -0.686 ± 0.18 and -0.291 ± 0.17. For CCAAAGCAAUAUUACGCUAC, the “self-splicing fitness (ln)” value is -2.17 ± 0.23 (30 °C) and -1.58 ± 0.27 (37 °C). Taken in the same sequence, the figures for UGGUAGCAAUAUUACGAGCG were -0.4 ± 0.053 and -0.521 ± 0.081. Turning to CAGGAGCAAUAUUACGACUG, the “self-splicing fitness (ln)” value (37 °C) is -2.83 ± 0.38. On to CCAGAGCAAUAUUACGCCUU, for which the “self-splicing fitness (ln)” value is -3.57 ± 0.25 (30 °C) and -2.37 ± 0.25 (37 °C). CAGCAGCAAUAUUACGAUCU: the “self-splicing fitness (ln)” value by setting is: (30 °C) -3.54 ± 0.35; (37 °C) -2.38 ± 0.19. Consider AAGCAGCAAUAUUACGGUGA, for which the “self-splicing fitness (ln)” value is, setting by setting: (30 °C) -0.827 ± 0.1; (37 °C) -1.15 ± 0.092. CGCCAGCAAUAUUACGAGAA: the “self-splicing fitness (ln)” value runs as follows: (30 °C) -2.14 ± 0.42; (37 °C) -2.75 ± 0.38.

In the case of ACGGAGCAAUAUUACGGCUA, the “self-splicing fitness (ln)” value by setting is: (30 °C) -1.96 ± 0.21; (37 °C) -0.548 ± 0.14. On the same counts, the results for CCCAAGCAAUAUUACGCGCU are -3.79 ± 0.34 and -1.91 ± 0.25. On the same counts, the results for CGACAGCAAUAUUACGAGCC are -3.59 ± 0.22 and -1.68 ± 0.26. Taken in the same sequence, the figures for UUAUAGCAAUAUUACGCUAG were -1.92 ± 0.2 and -0.0618 ± 0.24. As for GUCUAGCAAUAUUACGUUUU, the “self-splicing fitness (ln)” value by setting is: (30 °C) -1.2 ± 0.08; (37 °C) -0.759 ± 0.084. On the same counts, the results for CCAAAGCAAUAUUACGACCU are -3.31 ± 0.21 and -3.23 ± 0.38. Taken in the same sequence, the figures for AGACAGCAAUAUUACGUGUA were -1.89 ± 0.078 and -1.61 ± 0.069.
